To fix the notation:
B1: Protein GLUTAMINE DUMPER 1 (Arabidopsis thaliana (Mouse-ear cress)), O81775 (parent)
chain: MRPLSVQSKFEDVATSTSVNHHGVTPQSPWHSPVPYLFGGLAAMLGLIAFALLILACSYWRLSSSGEEDGQNVDEEKESRSGDKAANGAYEEKFLVIMAGEDLPRYLATPAMKKCTCGGHEGKMVISQEESVAKEEEKMREGEEEKVKDTGETTTTSH
partner: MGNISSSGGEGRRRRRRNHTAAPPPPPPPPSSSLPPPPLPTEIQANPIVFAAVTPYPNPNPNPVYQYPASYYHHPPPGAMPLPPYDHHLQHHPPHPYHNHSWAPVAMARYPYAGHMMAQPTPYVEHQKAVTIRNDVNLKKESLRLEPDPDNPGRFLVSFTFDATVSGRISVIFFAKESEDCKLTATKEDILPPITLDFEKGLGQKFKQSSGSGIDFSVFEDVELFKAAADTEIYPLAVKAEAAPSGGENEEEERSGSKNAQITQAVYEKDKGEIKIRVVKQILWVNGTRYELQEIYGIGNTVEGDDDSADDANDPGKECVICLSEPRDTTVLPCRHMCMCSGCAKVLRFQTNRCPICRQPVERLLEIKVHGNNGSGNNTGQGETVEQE
B2: Protein GLUTAMINE DUMPER 1 (Arabidopsis thaliana (Mouse-ear cress)), O81775 (parent)
chain: B1 chain
partner: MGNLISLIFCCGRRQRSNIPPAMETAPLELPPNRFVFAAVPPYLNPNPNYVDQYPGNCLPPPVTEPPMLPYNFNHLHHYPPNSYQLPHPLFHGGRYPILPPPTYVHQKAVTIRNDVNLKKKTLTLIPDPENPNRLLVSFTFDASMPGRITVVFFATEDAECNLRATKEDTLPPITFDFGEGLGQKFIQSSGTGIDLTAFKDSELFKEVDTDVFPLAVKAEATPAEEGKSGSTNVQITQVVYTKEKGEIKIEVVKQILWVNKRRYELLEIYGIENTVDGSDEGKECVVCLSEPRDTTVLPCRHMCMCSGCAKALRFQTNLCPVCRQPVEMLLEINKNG
B3: Probable E3 ubiquitin-protein ligase LOG2 (Arabidopsis thaliana (Mouse-ear cress)), Q9S752 (parent)
chain: B1 partner
partner: B1 chain

In the first assay the parent is B1. The following applies: with lofg2_arath LOG2, Q9S752.
G100R: the “effect of a mutation on the interaction” value is “disrupting interaction”.

Variants of B2 are the subject of another assay. The following applies: with lul1_arath LUL1, Q9LYW5.
As to G100R, the “effect of a mutation on the interaction” value was “disrupting interaction”.

The variants in the next assay derive from B3. To be noted: with gdu1_arath GDU1, O81775.
In the case of G2A;C354A;C357A, the “effect of a mutation on the interaction” value is “decreasing interaction”.

Values taken from IntAct's records for PubMed 22291198.
